Drawing on patent US11248243B2, “Process for the biological production of methacrylic acid and derivatives thereof” (MITSUBISHI CHEMICAL UK LIMITED, priority 2015, dated 2022), this text covers Km and Vmax for 1 protein.

Substrate in series [1]: CC(C)C(=O)SCCNC(=O)CCNC(=O)[C@H](O)C(C)(C)COP(=O)(O)OP(=O)(O)OC[C@H]1O[C@@H](n2cnc3c(N)ncnc32)[C@H](O)[C@@H]1OP(=O)(O)O
Description: Kinetic characterisation of purified carboxy-terminal hexahistidine tagged 4HBT (thioester hydrolysis, DTNB). The class given is biochemical. Conditions: other: substrate of purified CtHis-4HBT (0.075 mg/ml for methacrylyl-CoA, 1 mg/ml for isobutyryl-CoA), DTNB 0.5 mM, Lineweaver-Burke plot; 18.0 °C. As to the method: (§1) Pure carboxy-terminal His-tagged 4HBT enzyme was then prepared by first growing cultures of E. coli BL21 (DE3) pLysS pET20b(+)::CtHis-4HBT and inducing expression in the exact same manner as was performed for E. coli BL21 (DE3) pLysS pET20b(+)::4HBT. […] Cells were harvested by splitting the cell culture into three centrifuge tubes and centrifuging at 5000 g for 20 min at 4° C. Cell pellets were not washed though, and were instead directly stored at −80° C. A cell free extract of carboxy-terminal hexahistidine tagged 4HBT was prepared by re-suspending one of the E. coli BL21 (DE3) pLysS pET20b(+)::CtHis-4HBT cell pellets in binding buffer (6 ml) for a Nickel-sepharose FPLC column. Binding buffer consisted of NaH2PO4 (10 mM), Na2HPO4 (10 mM), NaCl (500 mM), imidazole (30 mM) and was adjusted to pH 7.4 with HCl. Benzonase® nuclease (0.6 μl) was added to the re-suspended cells before they were lysed in the Constant Systems One Shot cell disrupter. The cell lysate was then clarified by centrifugation at 18,000 g for 15 min at 4° C., followed by centrifugation of the supernatant at 57,750 g for 60 min at 4° C. This supernatant was then loaded onto a GE Healthcare HisTrap™ FF Crude column (1 ml) that was equilibrated with binding buffer. […] Protein elution was monitored at 280 nm and fractions were checked for the presence and purity of carboxy-terminal His-tagged 4HBT by SDS-PAGE. […] The latter dilution in potassium phosphate assay buffer and re-concentration was performed once more and the concentration of CtHIS-4HBT protein was determined by UV280 absorbance in a NanoDrop ND1000 spectrophotometer, using a molar extinction coefficient of 20970M^−1·cm^−1 and a molecular weight of 17516.5 mg·mmol^−1 for the carboxy-terminal His-tagged 4HBT enzyme. The values for the molar extinction coefficient and molecular weight were determined using the Expasy ProtParam tool, using the amino acid translation of the gene sequence encoding the carboxy-terminal his tagged 4HBT enzyme (SEQ. ID 5) in the pET20b(+)::CtHis-4HBT plasmid. […]
(§2) Methacrylyl-CoA hydrolysis reactions (200 μl) were performed in Nunc 96 well plates using purified CtHis-4HBT protein (0.075 mg·ml^−1) and DTNB (0.5 mM) to monitor the reaction. Initial rates were determined for methacrylyl-CoA starting concentrations of 0.375 mM, 0.3 mM, 0.225 mM, 0.15 mM and 0.075 mM. […]
(§3) Isobutyryl-CoA hydrolysis reactions (200 μl) were also performed in Nunc 96 well plates, using purified CtHIS-4HBT protein (1 mg·ml^−1) and DTNB (0.5 mM) to monitor the reaction. Initial rates were determined for isobutyryl-CoA starting concentrations of 0.5 mM, 0.4 mM, 0.3 mM, 0.2 mM and 0.1 mM. […]

Substrate in series [2]: C=C(C)C(=O)SCCNC(=O)CCNC(=O)[C@H](O)C(C)(C)COP(=O)(O)OP(=O)(O)OC[C@H]1O[C@@H](n2cnc3c(N)ncnc32)[C@H](O)[C@@H]1OP(=O)(O)O
The description is as above. It is filed as biochemical. Conditions: other: substrate of purified CtHis-4HBT (0.075 mg/ml for methacrylyl-CoA, 1 mg/ml for isobutyryl-CoA), DTNB 0.5 mM, Lineweaver-Burke plot; 18.0 °C. As to the method:
as §1, §2, §3

B1: 4-hydroxybenzoyl-CoA thioesterase (4HBT) (Arthrobacter sp.) (protein)
chain: MHRTSNGSHATGGNLPDVASHYPVAYEQTLDGTVGFVIDEMTPERATASVEVTDTLRQRWGLVHGGAYCALAEMLATEATVAVVHEKGMMAVGQSNHTSFFRPVKEGHVRAEAVRIHAGSTTWFWDVSLRDDAGRLCAVSSMSIAVRPRRDGLEHHHHHH
notes: made in house; host or cells: E. coli BL21 (DE3) pLysS pET20b(+)::CtHis-4HBT
As for B1, the Michaelis constant (Km) in series [1] was 3000 µM; in series [2], 1600 µM. Further, the values for the Vmax in series [1] and in series [2] were 16.7 nmols·mg^−1·min^−1 and 470 nmols·mg^−1·min^−1, respectively.
